Experimental findings from the supplement of paper PMC9112550, “Optimization of the antimicrobial peptide Bac7 by deep mutational scanning” (BMC Biology, 2022) are described below.
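Further: peptides expressed intracellularly from a pBAD plasmid library in pooled LB shake-flask culture, induced with 0.3% L-arabinose, DNA abundance read by NGS, three biological replicates, DESeq2 with apeglm shrinkage.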

The data set relates to Escherichia coli TOP10. The experiment in a line: shrunken log2 fold change of peptide-encoding DNA abundance (4.5 h post-induction vs induction); higher = less antimicrobial activity (less host growth inhibition). The conditions noted are these: time post-induction: 4.5 h; library: site-saturation at positions 5, 18, 19, 20.
Turning to RRIRRRPPRLPRPRPRPPMCPRP, the “shrunken log2 fold change” value was 0.622.
For RRIRHRPPRLPRPRPRPSTHPRP the value was -0.564; for RRIRDRPPRLPRPRPRPVHYPRP, 0.0175.
For RRIRRRPPRLPRPRPRPDNGPRP the value was -0.0214; for RRIRHRPPRLPRPRPRPPFFPRP, 0.168.
Under RRIRLRPPRLPRPRPRPIIVPRP stands -0.0625; under RRIRQRPPRLPRPRPRPDRHPRP, -0.182; under RRIRIRPPRLPRPRPRPYTKPRP, -0.203.
With RRIRSRPPRLPRPRPRPTWFPRP, the “shrunken log2 fold change” value was -0.216.
As to RRIRDRPPRLPRPRPRPMMFPRP, the “shrunken log2 fold change” value came to 0.43.
As to RRIRWRPPRLPRPRPRPDPKPRP, the “shrunken log2 fold change” value was -0.0134.
For RRIRKRPPRLPRPRPRPVGQPRP the value was 0.0743.
On to RRIRERPPRLPRPRPRPLWQPRP, for which the “shrunken log2 fold change” value amounted to 0.113.
For the sequence RRIRFRPPRLPRPRPRPLSEPRP, the “shrunken log2 fold change” value is -0.22.
For RRIRTRPPRLPRPRPRPFIHPRP the value was -0.0383; for RRIRKRPPRLPRPRPRPLLQPRP, 0.31.
For RRIRCRPPRLPRPRPRPNLHPRP the value was -0.619.
Under RRIRQRPPRLPRPRPRPLAYPRP stands -0.0738.
Take RRIRIRPPRLPRPRPRPLQWPRP: the “shrunken log2 fold change” value was -0.013.
Under RRIRGRPPRLPRPRPRPQRDPRP stands 0.419.
With RRIRFRPPRLPRPRPRPMQNPRP, the “shrunken log2 fold change” value amounted to 0.027.
Under RRIRNRPPRLPRPRPRPHQDPRP stands -0.297; under RRIRHRPPRLPRPRPRPADEPRP, 0.0084; under RRIRTRPPRLPRPRPRPGNRPRP, 0.192.
Under RRIRIRPPRLPRPRPRPALIPRP stands -0.0428; under RRIRYRPPRLPRPRPRPDLWPRP, -0.0329; under RRIRYRPPRLPRPRPRPFSHPRP, -0.0363.
Under RRIRDRPPRLPRPRPRPWRFPRP stands -0.277; under RRIRWRPPRLPRPRPRPLNYPRP, -0.546.
For RRIRFRPPRLPRPRPRPHMLPRP, the “shrunken log2 fold change” value was 0.798.
Under RRIRIRPPRLPRPRPRPVNCPRP stands -0.34; under RRIRHRPPRLPRPRPRPLECPRP, -0.257.
Under RRIRMRPPRLPRPRPRPEFFPRP stands 0.277.
Under RRIRQRPPRLPRPRPRPMSFPRP stands 0.0381; under RRIRCRPPRLPRPRPRPIGHPRP, -0.312.
Take RRIRERPPRLPRPRPRPEGFPRP: the “shrunken log2 fold change” value was -0.00351.
For RRIRARPPRLPRPRPRPPNVPRP the value was 0.109; for RRIRYRPPRLPRPRPRPPFKPRP, -0.554; for RRIRMRPPRLPRPRPRPWGRPRP, 0.389.
For RRIRNRPPRLPRPRPRPHNEPRP the value was -0.509.
For RRIRPRPPRLPRPRPRPKSLPRP the value was -0.015.
RRIRNRPPRLPRPRPRPRVGPRP: the “shrunken log2 fold change” value is 0.0576.
Under RRIRYRPPRLPRPRPRPYQDPRP stands -1.1; under RRIRIRPPRLPRPRPRPFPVPRP, -0.339.
Under RRIRWRPPRLPRPRPRPECYPRP stands -0.0149.
For RRIRERPPRLPRPRPRPELPPRP the value was -0.0646.
In the case of RRIRLRPPRLPRPRPRPGLPPRP, the “shrunken log2 fold change” value was determined as 0.576.
For RRIRVRPPRLPRPRPRPAYSPRP the value was -0.167.
For RRIRYRPPRLPRPRPRPATQPRP the value was -0.163; for RRIRNRPPRLPRPRPRPQRLPRP, 0.0491.
Under RRIRQRPPRLPRPRPRPYMYPRP stands -0.0364; under RRIRFRPPRLPRPRPRPDHPPRP, -0.593; under RRIRLRPPRLPRPRPRPVMAPRP, 0.0839.
Regarding RRIRVRPPRLPRPRPRPSTRPRP, the “shrunken log2 fold change” value worked out at 0.552.
Under RRIRKRPPRLPRPRPRPVWGPRP stands 3.44.
For RRIRFRPPRLPRPRPRPNMWPRP the value was -0.485; for RRIRKRPPRLPRPRPRPTQPPRP, 0.606; for RRIRSRPPRLPRPRPRPRPQPRP, 0.72.
As for RRIRSRPPRLPRPRPRPRRCPRP, the “shrunken log2 fold change” value is 0.359.
In the case of RRIRTRPPRLPRPRPRPIDMPRP, the “shrunken log2 fold change” value stood at 0.00748.
Consider RRIRTRPPRLPRPRPRPCRDPRP, for which the “shrunken log2 fold change” value was -0.118.
Under RRIRERPPRLPRPRPRPLRSPRP stands 0.474; under RRIRPRPPRLPRPRPRPGCIPRP, -0.0111; under RRIRKRPPRLPRPRPRPRQNPRP, 0.586.
Regarding RRIRMRPPRLPRPRPRPVWRPRP, the “shrunken log2 fold change” value came out at 0.947.
For RRIRPRPPRLPRPRPRPELLPRP the value was 0.14; for RRIRSRPPRLPRPRPRPIITPRP, -0.507; for RRIRARPPRLPRPRPRPTSKPRP, 0.236.
Under RRIRERPPRLPRPRPRPGAAPRP stands 1.82; under RRIRNRPPRLPRPRPRPQVDPRP, -0.706.
Under RRIRHRPPRLPRPRPRPLLPPRP stands -0.0821.
Consider RRIRHRPPRLPRPRPRPGGTPRP, for which the “shrunken log2 fold change” value was 0.0131.
In the case of RRIRPRPPRLPRPRPRPYGEPRP, the “shrunken log2 fold change” value is 0.0864.
For RRIRSRPPRLPRPRPRPLRPPRP the value was 0.953; for RRIRTRPPRLPRPRPRPHNMPRP, -0.651; for RRIRARPPRLPRPRPRPRGRPRP, 0.703.
Under RRIRVRPPRLPRPRPRPSEQPRP stands -0.0241; under RRIRVRPPRLPRPRPRPANPPRP, -0.21.
For RRIRVRPPRLPRPRPRPAITPRP the value was -0.142.
As to RRIRARPPRLPRPRPRPPAQPRP, the “shrunken log2 fold change” value came out at 1.02.
Under RRIRKRPPRLPRPRPRPWMAPRP stands 0.102; under RRIRQRPPRLPRPRPRPTLIPRP, -0.131; under RRIRKRPPRLPRPRPRPAKEPRP, -0.0233.
For RRIRCRPPRLPRPRPRPPASPRP the value was 0.723; for RRIRIRPPRLPRPRPRPQDIPRP, -0.461; for RRIRGRPPRLPRPRPRPCRTPRP, 0.225.
For RRIRLRPPRLPRPRPRPKFSPRP the value was -0.0419; for RRIRCRPPRLPRPRPRPRNYPRP, -0.094; for RRIRERPPRLPRPRPRPGNVPRP, -0.197.
Regarding RRIRERPPRLPRPRPRPCNYPRP, the “shrunken log2 fold change” value was -0.746.
Under RRIRDRPPRLPRPRPRPIATPRP stands -0.0393; under RRIRRRPPRLPRPRPRPGCVPRP, 0.329.
For RRIRNRPPRLPRPRPRPAYGPRP the value was 0.118; for RRIRKRPPRLPRPRPRPEGAPRP, 1.54.
For RRIRMRPPRLPRPRPRPYAAPRP the value was 0.364; for RRIRTRPPRLPRPRPRPMDVPRP, -0.303; for RRIRARPPRLPRPRPRPPYNPRP, -0.399.
Consider RRIRRRPPRLPRPRPRPVVEPRP, for which the “shrunken log2 fold change” value worked out at 0.339.
For RRIRFRPPRLPRPRPRPIFAPRP the value was 0.161; for RRIRLRPPRLPRPRPRPALCPRP, 0.00966; for RRIRRRPPRLPRPRPRPYTTPRP, -0.354.
For RRIRARPPRLPRPRPRPRAAPRP the value was 0.826; for RRIRWRPPRLPRPRPRPQFMPRP, -0.155; for RRIRQRPPRLPRPRPRPLCAPRP, 0.172.
Under RRIRRRPPRLPRPRPRPPNRPRP stands 0.4.
As to RRIRARPPRLPRPRPRPEWLPRP, the “shrunken log2 fold change” value came out at 1.25.
For RRIRIRPPRLPRPRPRPISYPRP the value was -0.197; for RRIRNRPPRLPRPRPRPKPWPRP, 0.217; for RRIRHRPPRLPRPRPRPAYSPRP, -0.000852.
As to RRIRCRPPRLPRPRPRPKPQPRP, the “shrunken log2 fold change” value worked out at 0.324.
On to RRIRVRPPRLPRPRPRPYNIPRP, for which the “shrunken log2 fold change” value was -1.26.
For RRIRFRPPRLPRPRPRPRSLPRP the value was 0.0152; for RRIRQRPPRLPRPRPRPWRKPRP, -0.0153.
For RRIRWRPPRLPRPRPRPMKPPRP the value was -0.0125.
For RRIRSRPPRLPRPRPRPIEIPRP, the “shrunken log2 fold change” value is -0.00473.
In the case of RRIRARPPRLPRPRPRPGFPPRP, the “shrunken log2 fold change” value is 0.213.
Under RRIRPRPPRLPRPRPRPDDCPRP stands -0.0649; under RRIRKRPPRLPRPRPRPIYVPRP, 0.0461.
Take RRIRTRPPRLPRPRPRPYGQPRP: the “shrunken log2 fold change” value was -0.107.
Under RRIRNRPPRLPRPRPRPRKYPRP stands -0.258; under RRIRSRPPRLPRPRPRPESQPRP, 0.0194.
Under RRIRRRPPRLPRPRPRPFDHPRP stands -0.242.
For RRIRWRPPRLPRPRPRPDDMPRP the value was -0.147.
For the sequence RRIRGRPPRLPRPRPRPNHCPRP, the “shrunken log2 fold change” value is -0.112.
Take RRIRSRPPRLPRPRPRPNSSPRP: the “shrunken log2 fold change” value was -0.31.
